Source: patent US20150329644

Tests used:
[1] = biological target: T1, GST-NP.d1 (NPAC residues 1-150, PWWP domain)
T1 chain: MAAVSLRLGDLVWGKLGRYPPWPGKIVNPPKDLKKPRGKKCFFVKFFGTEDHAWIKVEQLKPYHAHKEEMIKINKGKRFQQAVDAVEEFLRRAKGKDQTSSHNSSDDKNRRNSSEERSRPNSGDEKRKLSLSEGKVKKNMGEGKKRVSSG

[2] = biological target: T2, GST-NP.d2 (NPAC residues 1-252)
T2 chain: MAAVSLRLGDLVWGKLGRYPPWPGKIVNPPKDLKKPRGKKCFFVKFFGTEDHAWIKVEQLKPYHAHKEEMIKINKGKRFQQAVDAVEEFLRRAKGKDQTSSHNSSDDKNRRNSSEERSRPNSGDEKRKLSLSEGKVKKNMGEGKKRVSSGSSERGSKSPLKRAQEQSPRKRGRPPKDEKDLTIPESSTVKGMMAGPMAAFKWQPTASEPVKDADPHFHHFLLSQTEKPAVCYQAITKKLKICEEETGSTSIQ

[3] = biological target: T3, GST-NP.d3 (NPAC residues 152-252, linker region)
T3 chain: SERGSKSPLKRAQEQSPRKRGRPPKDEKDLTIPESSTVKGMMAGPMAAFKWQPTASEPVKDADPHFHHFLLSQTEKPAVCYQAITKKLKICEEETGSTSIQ

[4] = biological target: T4, GST-NP.d4 (NPAC residues 152-553)
T4 chain: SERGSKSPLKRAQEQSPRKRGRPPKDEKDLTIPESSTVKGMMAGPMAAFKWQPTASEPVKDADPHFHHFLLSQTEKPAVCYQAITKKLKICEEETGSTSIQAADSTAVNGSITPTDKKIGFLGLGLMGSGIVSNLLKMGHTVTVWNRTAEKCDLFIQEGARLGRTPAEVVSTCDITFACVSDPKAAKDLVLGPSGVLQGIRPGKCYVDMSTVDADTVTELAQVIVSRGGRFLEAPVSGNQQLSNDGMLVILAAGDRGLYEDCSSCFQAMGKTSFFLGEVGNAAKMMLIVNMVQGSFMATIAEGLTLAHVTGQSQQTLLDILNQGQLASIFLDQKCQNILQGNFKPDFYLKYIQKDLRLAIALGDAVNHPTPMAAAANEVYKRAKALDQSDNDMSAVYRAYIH

[5] = biological target: T5, GST-NP.d5 (NPAC residues 262-553, dehydrogenase domain)
T5 chain: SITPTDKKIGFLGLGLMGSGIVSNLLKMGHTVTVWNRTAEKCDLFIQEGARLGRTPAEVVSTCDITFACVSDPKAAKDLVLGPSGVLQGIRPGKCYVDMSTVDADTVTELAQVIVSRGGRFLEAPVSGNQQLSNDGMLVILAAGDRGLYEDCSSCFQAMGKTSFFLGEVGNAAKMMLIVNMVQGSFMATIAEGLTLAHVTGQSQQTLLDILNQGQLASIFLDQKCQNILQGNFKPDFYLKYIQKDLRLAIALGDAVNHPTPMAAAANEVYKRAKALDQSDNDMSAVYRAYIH

[6] = biological target: T6, GST-NP.d6 (NPAC with deletion of the linker region, residues 152-252)
T6 chain: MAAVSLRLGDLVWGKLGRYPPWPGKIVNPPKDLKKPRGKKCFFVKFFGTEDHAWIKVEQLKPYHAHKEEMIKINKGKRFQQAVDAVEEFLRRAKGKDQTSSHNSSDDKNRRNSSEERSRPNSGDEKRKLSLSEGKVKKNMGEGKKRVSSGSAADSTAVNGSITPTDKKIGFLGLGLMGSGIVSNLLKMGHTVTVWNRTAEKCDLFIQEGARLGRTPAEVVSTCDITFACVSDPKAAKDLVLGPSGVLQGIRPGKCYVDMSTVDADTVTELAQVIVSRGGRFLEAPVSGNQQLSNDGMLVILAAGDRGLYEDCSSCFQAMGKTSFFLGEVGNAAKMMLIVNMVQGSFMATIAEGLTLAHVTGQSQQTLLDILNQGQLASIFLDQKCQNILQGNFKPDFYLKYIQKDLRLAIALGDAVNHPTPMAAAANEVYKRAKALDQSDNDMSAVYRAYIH

[7] = biological target: T7, GST-NP.d7 (NPAC residues 152-186, containing the AT hook motif)
T7 chain: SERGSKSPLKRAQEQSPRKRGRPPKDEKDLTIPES

[8] = biological target: T8, GST-NP.d8 (NPAC residues 188-252)
T8 chain: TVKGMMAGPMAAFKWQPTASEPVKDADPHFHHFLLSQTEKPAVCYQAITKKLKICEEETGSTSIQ

[9] = biological target: T9, GST-NP.d9 (NP.d3, NPAC residues 152-252, with deletion of amino acids 214-222)
T9 chain: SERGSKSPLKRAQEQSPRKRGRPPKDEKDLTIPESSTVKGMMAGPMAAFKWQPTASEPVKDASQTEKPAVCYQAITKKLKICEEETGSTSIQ

B1: Recombinant 6x his tagged full-length LSD2 (protein)
chain: HHHHHHMATPRGRTKKKASFDHSPDSLPLRSSGRQAKKKATETTDEDEDGGSEKKYRKCEKAGCTATCPVCFASASERCAKNGYTSRWYHLSCGEHFCNECFDHYYRSHKDGYDKYTTWKKIWTSNGKTEPSPKAFMADQQLPYWVQCTKPECRKWRQLTKEIQLTPQIAKTYRCGMKPNTAIKPETSDHCSLPEDLRVLEVSNHWWYSMLILPPLLKDSVAAPLLSAYYPDCVGMSPSCTSTNRAAATGNASPGKLEHSKAALSVHVPGMNRYFQPFYQPNECGKALCVRPDVMELDELYEFPEYSRDPTMYLALRNLILALWYTNCKEALTPQKCIPHIIVRGLVRIRCVQEVERILYFMTRKGLINTGVLSVGADQYLLPKDYHNKSVIIIGAGPAGLAAARQLHNFGIKVTVLEAKDRIGGRVWDDKSFKGVTVGRGAQIVNGCINNPVALMCEQLGISMHKFGERCDLIQEGGRITDPTIDKRMDFHFNALLDVVSEWRKDKTQLQDVPLGEKIEEIYKAFIKESGIQFSELEGQVLQFHLSNLEYACGSNLHQVSARSWDHNEFFAQFAGDHTLLTPGYSVIIEKLAEGLDIQLKSPVQCIDYSGDEVQVTTTDGTGYSAQKVLVTVPLALLQKGAIQFNPPLSEKKMKAINSLGAGIIEKIALQFPYRFWDSKVQGADFFGHVPPSASKRGLFAVFYDMDPQKKHSVLMSVIAGEAVASVRTLDDKQVLQQCMATLRELFKEQEVPDPTKYFVTRWSTDPWIQMAYSFVKTGGSGEAYDIIAEDIQGTVFFAGEATNRHFPQTVTGAYLSGVREASKIAAF
LSD2 activity on nucleosome substrates (nucleosome demethylation assay, immunoblot) [1]: Neither the PWWP domain (SEQ ID NO: 63) (NP.d1, residues 1-150) nor the dehydrogenase domain (NP.d5, residues 262-553) stimulated LSD2 | LSD2 activity on nucleosome substrates (nucleosome demethylation assay, immunoblot) [2]: significantly enhance LSD2 demethylase activity | LSD2 activity on nucleosome substrates (nucleosome demethylation assay, immunoblot) [3]: significantly enhance LSD2 demethylase activity | LSD2 activity on nucleosome substrates (nucleosome demethylation assay, immunoblot) [4]: significantly enhance LSD2 demethylase activity | LSD2 activity on nucleosome substrates (nucleosome demethylation assay, immunoblot) [5]: Neither the PWWP domain (SEQ ID NO: 63) (NP.d1, residues 1-150) nor the dehydrogenase domain (NP.d5, residues 262-553) stimulated LSD2 | LSD2 activity on nucleosome substrates (nucleosome demethylation assay, immunoblot) [6]: deletion of the linker region (residues 152-252) abolishes cofactor activity (NP.d6, lane 10) | LSD2 histone demethylase activity on nucleosomal substrates [7]: NP.d8, but not NP.d7 or NP.d9, significantly enhances LSD2 histone demethylase activity on nucleosomal substrates | LSD2 histone demethylase activity on nucleosomal substrates [8]: NP.d8, but not NP.d7 or NP.d9, significantly enhances LSD2 histone demethylase activity on nucleosomal substrates | LSD2 histone demethylase activity on nucleosomal substrates [9]: NP.d8, but not NP.d7 or NP.d9, significantly enhances LSD2 histone demethylase activity on nucleosomal substrates
